Laboratory results as given in the supplement of paper PMC10126150.
± gives the standard deviation of the averaged measurements.

Tested on: ATP
Experiment: switch fluorescence ratio, 500 uM ATP over buffer (Cy3 cluster intensity, sum of 5 cycles each) (fold (ratio)); higher = stronger signal-on switching upon ATP binding; sequences stand for … in TCGTCGGCAGCGTCAGATGTGTATAAGAGACAGTTTTTTTTTTTTTTTTTTTTTTTTT…TC
Settings: aptamer strand: ATP DNA aptamer (quencher-CACCTGGGGGAGTATTGCGGAGGAAGG + anchor), 100 nM annealed; ATP concentration: 500 uM
Outline: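 Between each of five buffer/ATP cycles, the flow-cell was stripped with NaOH and re-annealed. Each cycle imaged Cy3-labelled switching-strand clusters, annealed to 100 nM quencher-labelled ATP aptamer on a modified Illumina MiSeq flow-cell, first in selection buffer and then after 15 min with 500 uM ATP at 22 °C. The fluorescence ratio is summed target-cycle over summed buffer-cycle Cy3 intensity per cluster, averaged per switch-domain sequence, with clusters outside 100-1000 RFU excluded.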
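Also: ATP exposure 15 min at 22 °C before imaging.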

**Q.** For GGGGCGGGGA, which switch fluorescence ratio is on record?
**A.** The switch fluorescence ratio was 0.996 ± 0.045.

**Q.** With CAAGAGAATG as the sequence, how does the switch fluorescence ratio read?
**A.** Its switch fluorescence ratio is 0.999 ± 0.037.

**Q.** Which switch fluorescence ratio does the source give for AACAACATAG here?
**A.** Its switch fluorescence ratio is 1.02 ± 0.036.

**Q.** Which switch fluorescence ratio does the source give for CCGCTCGGGG here?
**A.** The switch fluorescence ratio was 1.05 ± 0.053.

**Q.** How did the switch fluorescence ratio turn out when ATAGATGCTT was run?
**A.** Its switch fluorescence ratio is 1.002 ± 0.003.

**Q.** How did the switch fluorescence ratio turn out when GGGAGTTGAA was run?
**A.** The switch fluorescence ratio was 0.9747 ± 0.0083.

**Q.** TCAGGTCTGT was tested. Which switch fluorescence ratio did it give?
**A.** Its switch fluorescence ratio is 0.9958 ± 0.0074.

**Q.** Which switch fluorescence ratio does the source give for GATAGAGTAG here?
**A.** The switch fluorescence ratio was 1.016 ± 0.0019.

**Q.** For GTTATATTTT, which switch fluorescence ratio is on record?
**A.** Its switch fluorescence ratio is 1.01 ± 0.032.

**Q.** With GACGACGTTA as the sequence, how does the switch fluorescence ratio read?
**A.** Its switch fluorescence ratio is 1.55 ± 0.026.

**Q.** With GGACGCCTTG as the sequence, how does the switch fluorescence ratio read?
**A.** The switch fluorescence ratio was 0.976 ± 0.029.

**Q.** Which switch fluorescence ratio does the source give for ATTAGGTTGA here?
**A.** Its switch fluorescence ratio is 0.975 ± 0.0047.

**Q.** TCACTGGTTC was tested. Which switch fluorescence ratio did it give?
**A.** The switch fluorescence ratio was 1.032 ± 0.0038.

**Q.** How did the switch fluorescence ratio turn out when CTTTAGTCAG was run?
**A.** Its switch fluorescence ratio is 1.01 ± 0.016.

**Q.** Which switch fluorescence ratio does the source give for CGGGGAAGTG here?
**A.** The switch fluorescence ratio was 1 ± 0.019.

**Q.** With TTCGCGTTTT as the sequence, how does the switch fluorescence ratio read?
**A.** The switch fluorescence ratio was 1.02 ± 0.04.

**Q.** Which switch fluorescence ratio does the source give for AAGTGGGCGT here?
**A.** The switch fluorescence ratio was 1.01 ± 0.046.

**Q.** TCTCATTACG was tested. Which switch fluorescence ratio did it give?
**A.** The switch fluorescence ratio was 1.012 ± 0.0094.

**Q.** TTCAAGCGTT was tested. Which switch fluorescence ratio did it give?
**A.** The switch fluorescence ratio was 0.982 ± 0.019.

**Q.** How did the switch fluorescence ratio turn out when GGGGAGGGAG was run?
**A.** Its switch fluorescence ratio is 1.0077 ± 0.00081.

**Q.** How did the switch fluorescence ratio turn out when AGAGTATTAA was run?
**A.** The switch fluorescence ratio was 0.9824 ± 0.004.

**Q.** GATGCGGTTA was tested. Which switch fluorescence ratio did it give?
**A.** The switch fluorescence ratio was 0.988 ± 0.031.

**Q.** For TACACGTTTT, which switch fluorescence ratio is on record?
**A.** The switch fluorescence ratio was 1.03 ± 0.021.

**Q.** With GTTTTAGAGC as the sequence, how does the switch fluorescence ratio read?
**A.** Its switch fluorescence ratio is 1.05 ± 0.025.

**Q.** With GCTCGTTAAA as the sequence, how does the switch fluorescence ratio read?
**A.** Its switch fluorescence ratio is 1.04 ± 0.1.

**Q.** For GGGGTTCGCG, which switch fluorescence ratio is on record?
**A.** The switch fluorescence ratio was 1.004 ± 0.0048.

**Q.** Which switch fluorescence ratio does the source give for TCACATGGGA here?
**A.** Its switch fluorescence ratio is 0.976 ± 0.011.

**Q.** How did the switch fluorescence ratio turn out when CCGTGTATTT was run?
**A.** Its switch fluorescence ratio is 1.05 ± 0.052.

**Q.** For AGGGGGGCCA, which switch fluorescence ratio is on record?
**A.** Its switch fluorescence ratio is 1.02 ± 0.028.

**Q.** For GGGAAAATTT, which switch fluorescence ratio is on record?
**A.** Its switch fluorescence ratio is 1.07 ± 0.059.

**Q.** Which switch fluorescence ratio does the source give for TTCGTAACGC here?
**A.** Its switch fluorescence ratio is 1.03 ± 0.038.

**Q.** For TGCTAGACTG, which switch fluorescence ratio is on record?
**A.** Its switch fluorescence ratio is 1.03 ± 0.09.

**Q.** Which switch fluorescence ratio does the source give for CGTGCTATTC here?
**A.** The switch fluorescence ratio was 1.235 ± 0.012.

**Q.** ATTGTGGGGT was tested. Which switch fluorescence ratio did it give?
**A.** Its switch fluorescence ratio is 0.977 ± 0.04.

**Q.** How did the switch fluorescence ratio turn out when ATGGTCAGGG was run?
**A.** The switch fluorescence ratio was 0.987 ± 0.026.

**Q.** ATAGGATTTG was tested. Which switch fluorescence ratio did it give?
**A.** Its switch fluorescence ratio is 1.032 ± 0.0096.

**Q.** With CGGATACGCC as the sequence, how does the switch fluorescence ratio read?
**A.** The switch fluorescence ratio was 1.09 ± 0.028.

**Q.** For TTTTTTCAAC, which switch fluorescence ratio is on record?
**A.** The switch fluorescence ratio was 1.15 ± 0.26.

**Q.** For AGTGTGATAG, which switch fluorescence ratio is on record?
**A.** Its switch fluorescence ratio is 0.995 ± 0.034.

**Q.** For CGAGCTGCAT, which switch fluorescence ratio is on record?
**A.** The switch fluorescence ratio was 1.08 ± 0.011.

**Q.** With ATCGTCATAT as the sequence, how does the switch fluorescence ratio read?
**A.** Its switch fluorescence ratio is 1 ± 0.036.

**Q.** With GCGGTAGTAC as the sequence, how does the switch fluorescence ratio read?
**A.** The switch fluorescence ratio was 1.14 ± 0.013.

**Q.** For TGCGCAAAAG, which switch fluorescence ratio is on record?
**A.** The switch fluorescence ratio was 1.01 ± 0.012.

**Q.** Which switch fluorescence ratio does the source give for TGCTGGGGGA here?
**A.** Its switch fluorescence ratio is 1.01 ± 0.025.

**Q.** How did the switch fluorescence ratio turn out when TTTAATGGGG was run?
**A.** Its switch fluorescence ratio is 1.02 ± 0.035.

**Q.** How did the switch fluorescence ratio turn out when CGTCGGGGCG was run?
**A.** The switch fluorescence ratio was 1.02 ± 0.036.

**Q.** With GGAATGTAGG as the sequence, how does the switch fluorescence ratio read?
**A.** The switch fluorescence ratio was 0.99 ± 0.027.

**Q.** How did the switch fluorescence ratio turn out when CGCATGGCCT was run?
**A.** The switch fluorescence ratio was 1.04 ± 0.072.

**Q.** With ACAGGGGAGT as the sequence, how does the switch fluorescence ratio read?
**A.** The switch fluorescence ratio was 1.03 ± 0.02.

**Q.** CAATATATCT was tested. Which switch fluorescence ratio did it give?
**A.** Its switch fluorescence ratio is 1.01 ± 0.019.

**Q.** TCTCATCGGG was tested. Which switch fluorescence ratio did it give?
**A.** The switch fluorescence ratio was 1.014 ± 0.0037.

**Q.** For AAGGGTTAAG, which switch fluorescence ratio is on record?
**A.** The switch fluorescence ratio was 0.9975 ± 0.006.

**Q.** TCGAGGGGTA was tested. Which switch fluorescence ratio did it give?
**A.** Its switch fluorescence ratio is 1 ± 0.07.

**Q.** For ATTGGAGGGT, which switch fluorescence ratio is on record?
**A.** Its switch fluorescence ratio is 0.979 ± 0.025.

**Q.** CGGTCGGGGG was tested. Which switch fluorescence ratio did it give?
**A.** Its switch fluorescence ratio is 0.999 ± 0.032.

**Q.** With TGGGACGGGC as the sequence, how does the switch fluorescence ratio read?
**A.** The switch fluorescence ratio was 0.98 ± 0.049.

**Q.** With AGGGGTCAGG as the sequence, how does the switch fluorescence ratio read?
**A.** The switch fluorescence ratio was 1.022 ± 0.0055.

**Q.** CTTGAGATGT was tested. Which switch fluorescence ratio did it give?
**A.** The switch fluorescence ratio was 1.02 ± 0.044.

**Q.** With GCGGGGGCGT as the sequence, how does the switch fluorescence ratio read?
**A.** Its switch fluorescence ratio is 1 ± 0.03.

**Q.** For CGTCACATAA, which switch fluorescence ratio is on record?
**A.** Its switch fluorescence ratio is 1.22 ± 0.016.

**Q.** ATGTTATTGG was tested. Which switch fluorescence ratio did it give?
**A.** Its switch fluorescence ratio is 0.967 ± 0.033.

**Q.** TATTTTAGC was tested. Which switch fluorescence ratio did it give?
**A.** The switch fluorescence ratio was 0.971 ± 0.034.

**Q.** Which switch fluorescence ratio does the source give for CAAGTCTGGG here?
**A.** Its switch fluorescence ratio is 0.9879 ± 0.0059.

**Q.** For GAAGGGCTGG, which switch fluorescence ratio is on record?
**A.** Its switch fluorescence ratio is 0.972 ± 0.022.

**Q.** How did the switch fluorescence ratio turn out when AATGGGACTT was run?
**A.** The switch fluorescence ratio was 1.02 ± 0.015.

**Q.** Which switch fluorescence ratio does the source give for GGGTATGTGG here?
**A.** Its switch fluorescence ratio is 0.972 ± 0.032.

**Q.** Which switch fluorescence ratio does the source give for GGGAGGGAAG here?
**A.** Its switch fluorescence ratio is 1.03 ± 0.031.

**Q.** GTACTGTGTG was tested. Which switch fluorescence ratio did it give?
**A.** The switch fluorescence ratio was 1.001 ± 0.0037.

**Q.** How did the switch fluorescence ratio turn out when TAACTGTGGA was run?
**A.** Its switch fluorescence ratio is 1.08 ± 0.085.

**Q.** With GATGTTTTAC as the sequence, how does the switch fluorescence ratio read?
**A.** The switch fluorescence ratio was 0.998 ± 0.025.

**Q.** With ACAGTGCATT as the sequence, how does the switch fluorescence ratio read?
**A.** Its switch fluorescence ratio is 1.03 ± 0.025.

**Q.** How did the switch fluorescence ratio turn out when CAAGTAAGTT was run?
**A.** The switch fluorescence ratio was 0.9884 ± 0.0063.

**Q.** For GGGTCGGCGA, which switch fluorescence ratio is on record?
**A.** Its switch fluorescence ratio is 1.03 ± 0.011.

**Q.** For GATATATGCA, which switch fluorescence ratio is on record?
**A.** Its switch fluorescence ratio is 0.997 ± 0.028.

**Q.** With TAAAGGGCTT as the sequence, how does the switch fluorescence ratio read?
**A.** Its switch fluorescence ratio is 1.02 ± 0.018.

**Q.** Which switch fluorescence ratio does the source give for TAATCGGGGT here?
**A.** The switch fluorescence ratio was 0.978 ± 0.038.

**Q.** GGGCTGGGGC was tested. Which switch fluorescence ratio did it give?
**A.** The switch fluorescence ratio was 0.997 ± 0.11.
